The chains are these.
T1: AGR2 antigenic peptide (CIHHLDESPHSQALKKVFAENKEIQKLAEQ; SEQ ID NO: 3) (human)
T1 peptide: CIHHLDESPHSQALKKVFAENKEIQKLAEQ

T2: human recombinant AGR2 (rAGR2) (ab64013, AbCam) (human, UniProt O95994 21-175, limits assumed)
T2 construct: also called extracellular AGR2
T2 sequence: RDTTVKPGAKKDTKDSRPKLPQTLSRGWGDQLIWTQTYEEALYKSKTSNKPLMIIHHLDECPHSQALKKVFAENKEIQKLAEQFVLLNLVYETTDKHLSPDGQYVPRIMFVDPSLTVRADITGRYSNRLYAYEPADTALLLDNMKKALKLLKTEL

T3: dystroglycan-1 (DAG-1) (UniProt Q14118 30-895, limits assumed)
T3 construct: Endogenous protein of a PDAC cell lysate; also called Dystoglycan-1
T3 sequence (looked up): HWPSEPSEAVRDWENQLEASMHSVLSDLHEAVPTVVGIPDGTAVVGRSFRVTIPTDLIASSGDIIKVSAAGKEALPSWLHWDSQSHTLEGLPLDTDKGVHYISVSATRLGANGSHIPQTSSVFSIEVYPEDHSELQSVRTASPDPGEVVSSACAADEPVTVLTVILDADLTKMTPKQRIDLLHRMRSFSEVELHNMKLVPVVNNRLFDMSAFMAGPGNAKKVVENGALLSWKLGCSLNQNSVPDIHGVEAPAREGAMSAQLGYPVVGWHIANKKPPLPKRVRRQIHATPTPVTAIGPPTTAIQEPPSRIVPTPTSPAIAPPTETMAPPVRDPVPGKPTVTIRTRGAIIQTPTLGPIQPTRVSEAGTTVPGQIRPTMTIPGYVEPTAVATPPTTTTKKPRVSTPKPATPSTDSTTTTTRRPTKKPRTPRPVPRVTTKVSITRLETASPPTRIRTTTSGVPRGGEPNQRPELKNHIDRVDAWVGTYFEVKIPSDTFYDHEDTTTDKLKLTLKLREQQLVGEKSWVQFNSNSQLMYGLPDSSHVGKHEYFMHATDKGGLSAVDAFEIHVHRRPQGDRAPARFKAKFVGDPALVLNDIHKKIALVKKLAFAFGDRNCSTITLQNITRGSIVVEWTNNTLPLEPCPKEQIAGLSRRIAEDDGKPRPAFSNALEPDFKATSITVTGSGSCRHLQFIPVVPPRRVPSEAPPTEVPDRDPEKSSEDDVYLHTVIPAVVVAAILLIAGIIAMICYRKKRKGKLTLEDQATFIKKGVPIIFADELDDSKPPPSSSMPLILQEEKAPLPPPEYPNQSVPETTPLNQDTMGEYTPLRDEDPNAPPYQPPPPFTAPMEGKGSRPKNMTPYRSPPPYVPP

T4: C4.4A (LYPD3), endogenous protein of PDAC cells (human, UniProt O95274 31-326)
T4 construct: On PDAC cells in the functional assays
T4 sequence: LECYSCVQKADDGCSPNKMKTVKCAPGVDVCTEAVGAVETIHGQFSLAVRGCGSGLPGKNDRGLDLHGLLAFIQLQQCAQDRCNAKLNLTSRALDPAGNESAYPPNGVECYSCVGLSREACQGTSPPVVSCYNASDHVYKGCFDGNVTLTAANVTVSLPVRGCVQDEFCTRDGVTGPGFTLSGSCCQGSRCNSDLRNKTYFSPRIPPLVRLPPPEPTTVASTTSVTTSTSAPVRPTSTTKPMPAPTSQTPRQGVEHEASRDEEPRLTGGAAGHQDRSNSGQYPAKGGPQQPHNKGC

T5: C4.4A antigenic peptide (CPVRPTSTTKPMPAPTSQTPRQGVEHEASRDEEPRL; SEQ ID NO: 4) (human)
T5 peptide: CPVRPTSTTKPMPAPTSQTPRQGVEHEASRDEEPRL

B1: 163-28B-1 monoclonal antibody (antibody, V domains shown)
VH: QIQLVQSGPELKKPGETVKISCKASGYTFTNYGMNWVKQAPGKGLKWMGWINTDTGKPTYTEEFKGRFAFSLATSASTAYLQINNLRNEDTATYFCGRVTADSMDYWGQGTSVTVSS
VL: DVVMTQTPLSLPVSLGDQASISCRSSQSLVHSNGNIYLHWFLQKPGQSPKLLIYKVSNRFSGVPDRFSGSGSGTDFTLKISRVEAEDLGVYFCSQSTHVPLTFGAGTKLELK
notes: also called AGR2 mAb; clone 28B
B2: Anterior Gradient 2 (AGR2), endogenous protein from PDAC cell lysate (SU86.86) (ligand)
chain: T2 sequence
notes: Endogenous AGR2 of human pancreatic cancer cell lysates, used in IP and western blot; also called hAG-2; Gob-4
B3: 162-1A-1 monoclonal antibody (antibody, V domains shown)
VH: EVMLVESGGGLVKPGGSLKLSCAASGFTFSSYTMSWVRQTPEKRLEWVASISSGGGNTYYADSVKGRFTMSRDNAKNNLYLQMSSLRSEDTALYYCARSYYYGISYDTYWGQGTLVTVSA
VL: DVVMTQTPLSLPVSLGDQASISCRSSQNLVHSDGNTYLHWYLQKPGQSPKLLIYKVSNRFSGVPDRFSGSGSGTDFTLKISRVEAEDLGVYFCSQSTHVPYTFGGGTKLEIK
notes: also called C4.4A mAb; clone 1A

In test [1] the target is T1, AGR2 antigenic peptide …. Nature of the test: ELISA, antigenic peptide (0.5 ug) coated, probed with purified Ab (FIG. 11C). The method, then: (§1) FIGS. 11A-D. Monoclonal antibodies developed bind respectively to AGR2 and C4.4A proteins and blocked their functions. From the endogenous lysate (SU86.86/Panc-1), AGR2 (18 kD) and C4.4A (50 kD) were identified by a panel of mAbs. […] Extra bands identified with the endogenous protein were re-confirmed with the recombinant protein. For apoptosis studies, AsPC-1 cells were treated without or with Gem (0.5 μM) and rAGR2 (100 nM) and with purified (A) AGR2 and (B) C4.4A Abs (1 μM). Commercially available Abs served as control. […] Horizontal line represents median apoptotic value. Data shown are mean±SE for 3 experiments (*p<0.05). (C,D) Binding assays were conducted with purified (C) AGR2 and (D) C4.4A Abs as selected from the apoptosis assay as having high blocking efficiency. ELISA assays were conducted by coating antigenic peptide (0.5 μg) and probed with respective purified Abs. Data shown are mean±SE for 3 experiments (*p <0.05). Based on high specificity and binding, clone 28B for AGR2 and 1A for C4.4A were selected. Purified Abs were also run on 4-20% gradient gel to check for the presence of heavy (50 kD) and light chains (25 kD).

The target of test [2] is T2, human recombinant AGR2 (rAGR2) …. Nature of the test: western blot (FIG. 5A).
Test [3] concerns the target B2. In words: western blot (FIG. 5A). (In general: Immunoblotting shows a protein as a band on a membrane.)
In a further test the target is T3, dystroglycan-1 (DAG-1). Nature of the test: co-immunoprecipitation from SU86.86 lysate with commercial anti-AGR2 antibody, western blot.
The target of test [4] is T4, C4.4A (LYPD3), endogenous protein of …. Described as above.
Test [5] deals with T5, C4.4A antigenic peptide …. In words: ELISA, antigenic peptide (0.5 ug) coated, probed with purified Ab (FIG. 11D). How it is done: as §1
The target in test [6] is T4, C4.4A (LYPD3), endogenous protein of …. In words: western blot (FIG. 5A).

Regarding B1, the binding result in test [1], in test [2] and in test [3] was “binds” in each case.

For B2, the binding result in the test with dystroglycan-1 (DAG-1) is given as “no binding”; in test [4] it was “binds”.

Turning to B3, the binding result in test [5] and in test [6] was “binds” in each case.

(Values after patent US20170283509A1 (University of Texas, published 2017).)
